Results published in patent publication US9273320B2, “Method of producing a sweet protein” (NOVOZYMES A/S, priority 2009, dated 2016).

Tests used:
[1] = Lamphear et al. 2005; cited from earlier work
[2] = background statement; cited from earlier work
[3] = system: taste panel of three persons; test: pH profile of the sweet taste of brazzein compared to sucrose, in 5 g/l whey protein; type: in vivo, human; conditions: 75 mg/l brazzein
Description: A taste panel of three persons estimated the pH profile of the sweet taste of brazzein compared to sucrose. 5 g/l whey protein (Lacprodan DI-9224, Arla Foods Ingredients) with 0%, 2%, 4%, 6%, 8%, 10%, 12%, 14% and 16% sucrose or 75 mg/l brazzein was adjusted with H3PO4, Na2HPO4 or NaOH to a final pH of […], 4.0, 5.0, 7.0 and 9.0.

[4] = system: test taste panel of six persons; test: Sensory evaluation of the sweetness of brazzein compared to sucrose, in 20% skim milk; type: in vivo, human; conditions: 50 mg/l brazzein in 20% skim milk
Text: Sweet protein: The term “sweet protein” as used herein refers to a protein having an intense sweet taste which is suitable for sweetening of food, beverage and/or medication products for human consumption. On weight basis, a sweet protein according to the present invention may be at least 100, preferably at least 200, more preferably at least 500, and even more preferably at least 1,000, times sweeter than sucrose, when compared to a 2% solution of sucrose. For purposes of the present invention, comparison of sweetness may be determined by testing human perception of sweetness of the protein against known controls using varied concentrations of the protein being diluted in water or in an aqueous solution which avoid adsorption on surfaces, such as 20% skim milk, e.g., as described in Example 3 of the present application. A test taste panel of six persons was used to evaluate the brazzein sweetness compared to sucrose. The brazzein batch from Example 2 was diluted 30 fold to a final conc. of 50 mg/l with 20% skim milk in order to avoid adsorption on surfaces. The sweetness was estimated using a standard of 0%, 0.68%, 1.37%, 2.74%, 5.48%, 11.0%, 21.9% (w/v) sucrose diluted in 20% (v/v) skim milk. The sweetness of this 50 mg/l brazzein dilution corresponded to an average sweetness of 2.57% (w/v) sucrose±0.55% sucrose (SD). Thus, the brazzein batch is 510 times sweeter than sucrose on weight basis at the present condition. The sweet taste delay of the brazzein was estimated to be 1.5 sec±1.2 sec (SD).

[5] = system: test taste panel of three persons; test: Sucrose replacement in yoghurt drink, sweetness in 23% Cheasy A38; type: in vivo, human
Description: A test taste panel of three persons was made to evaluate brazzein sweetness in yoghurt drink. The yoghurt product Cheasy A38 (Arla Foods), which contains 0.1% milk fat, 4.3% milk protein, was diluted to a final conc. of 1% milk protein, with sucrose or a solution of brazzein produced in A. oryzae. […] Thus, at the present condition in 23% Cheasy A38, the brazzein batch is 930 times sweeter than sucrose on weight basis.
Furthermore, the sweetness of brazzein and sucrose were additive as 6% sucrose+75 mg/l brazzein, taste like 12.7%±0.6% (SD) sucrose in 23% Cheasy A38.

[6] = background statement; cited from earlier work; remark: listed apart in the source

53-amino acid form: Natural brazzein form lacking the N-terminal glutamine or pyroglutamate; amino acids 2 to 54 of SEQ ID NO: 2 (QFTTILSIGITVFGLANTGAFAAPQPVPEAYAVSDPEAHPDDFAGMDANQLQK)
sweetness relative to the form having an N-terminal pyroglutamate [1]: twice as sweet

B1: brazzein: Sweet protein of Pentadiplandra brazzeana Baillon or a recombinant form; tested batch secreted from Aspergillus oryzae (SEQ ID NO: 2) (protein)
chain: MQFTTILSIGITVFGLANTGAFAAPQPVPEAYAVSDPEAHPDDFAGMDANQLQKREDKCKKVYENYPVSKCQLANQCNYDCKLDKHARSGECFYDEKRNLQCICDYCEY
heat stability [2]: can withstand heat
sucrose equivalent sweet taste ([3]; pH 2.0): 6.0 % sucrose
sucrose equivalent sweet taste ([3]; pH 3.0): 6.0 % sucrose
sucrose equivalent sweet taste ([3]; pH 4.0): 4.3 % sucrose
sucrose equivalent sweet taste ([3]; pH 5.0): 6.3 % sucrose
sucrose equivalent sweet taste ([3]; pH 7.0): 5.0 % sucrose
sucrose equivalent sweet taste ([3]; pH 9.0): 2.7 % sucrose
times sweeter than sucrose on weight basis [4]: 510 times
sweet taste delay ([4]; SD 1.2 sec): 1.5 s
average sweetness corresponding to sucrose ([4]; panel of six, SD 0.55% sucrose): 2.57 % (w/v) sucrose
times sweeter than sucrose on weight basis ([5]; 75 mg/l brazzein in 23% Cheasy A38): 930 times
sweetness corresponding to sucrose ([5]; 75 mg/l brazzein in 23% Cheasy A38, SD 1%): 7 % sucrose
sweetness of brazzein plus sucrose, tastes like sucrose ([5]; 6% sucrose + 75 mg/l brazzein in 23% Cheasy A38, SD 0.6%): 12.7 % sucrose
sweet-taste delay sensation ([5]; in the presence of 6% sucrose, 23% Cheasy A38): almost removed
solubility in water [6]: > 50 mg/mL
